The target of experiment [1] is T1, Human IL22 (human, UniProt Q9GZX6 34-179).
T1 construct: IL22 of the Biacore and cell assays
T1 sequence: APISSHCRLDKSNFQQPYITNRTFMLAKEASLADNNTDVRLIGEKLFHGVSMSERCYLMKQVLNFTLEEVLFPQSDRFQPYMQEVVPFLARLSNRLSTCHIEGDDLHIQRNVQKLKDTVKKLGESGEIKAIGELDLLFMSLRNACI
As to the kind of experiment: SPR Biacore T200; mean KD. (In general: SPR reads the build-up and loss of mass on a sensor chip optically.)
Method: (§1) BIA (Biomolecular Interaction Analysis) was performed using T200 (GE Healthcare). Affinipure IgG-F(ab′)₂ Fragment goat anti-human IgG, F(ab′)₂ fragment specific (Jackson ImmunoResearch) was immobilized on a CM5 Sensor Chip via amine coupling chemistry to a capture level of ˜5000 response units (RUs). HBS-EP+buffer (10 mM HEPES pH 7.4, 0.15 M NaCl, 3 mM EDTA, 0.05% Surfactant P20, GE Healthcare) was used as the running buffer with a flow rate of 10 μL/min.
(§2) The surface was generated by 2×10 μL injections of 50 mM HCl, interspersed by a 10 μL injection of 5 mM NaOH at flowrate of 10 μL/min. Background subtraction binding curves were analyzed using the T200 evaluation software (version 3.0) following standard procedures. Kinetic parameters were determined from the fitting algorithm.

Experiment [2] concerns the target T2, Human IL13 (human, UniProt P35225 35-146, limits assumed). As to the kind of experiment: cell-based or functional assay.
For experiment [3], the target named is T1, Human IL22. As to the kind of experiment: SPR; sample stressed 2 weeks at 37 °C, pH 8.0 (Asn95 of light chain CDR3 >40% deamidated).
For experiment [4], the target named is T1, Human IL22. Kind of experiment: SPR; non-stressed T0 sample of the deamidation stress study.
Experiment [5] concerns the target T3, Mouse IL13 (mouse, UniProt P20109 26-131, limits assumed).
T3 sequence (looked up): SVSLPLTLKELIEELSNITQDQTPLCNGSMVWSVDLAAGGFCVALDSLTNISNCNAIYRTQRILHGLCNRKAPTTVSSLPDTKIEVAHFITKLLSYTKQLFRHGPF
As to the kind of experiment: SPR Biacore T200; TrYbe captured on anti-human F(ab')2, mouse IL13 titrated.

The target in experiment [6] is T2, Human IL13. As to the kind of experiment: SPR Biacore T200; TrYbe captured on anti-human F(ab')2, analyte 10-0.3125 nM; mean KD.
Method: as §1, §2
Experiment [7] concerns the target T1, Human IL22. The description is as above.
Method: as §1, §2
Experiment [8] concerns the target T4, Cynomolgus IL13 (cynomolgus, UniProt Q0PW92 21-132).
T4 construct: also called Cyno IL-13
The description is as above.
Method: as §1, §2

Experiment [9] has as its target T5, Cynomolgus IL22 (cynomolgus, UniProt G7PHZ7 34-179).
T5 construct: also called Cyno IL22; Cyno IL-22
T5 sequence: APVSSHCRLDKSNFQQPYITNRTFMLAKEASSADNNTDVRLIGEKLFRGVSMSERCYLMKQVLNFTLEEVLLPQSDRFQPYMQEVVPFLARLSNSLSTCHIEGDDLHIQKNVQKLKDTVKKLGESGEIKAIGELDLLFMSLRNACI
The experiment is described as above.
Method: as §1, §2

In experiment [10] the target is T6, Mouse IL22 (mouse, UniProt Q9JJY9 34-179).
T6 sequence (looked up): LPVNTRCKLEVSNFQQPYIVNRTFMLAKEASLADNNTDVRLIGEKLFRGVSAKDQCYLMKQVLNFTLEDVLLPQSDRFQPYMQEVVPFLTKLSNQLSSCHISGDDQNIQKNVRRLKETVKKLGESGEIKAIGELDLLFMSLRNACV
Described as above.
Method: as §1, §2

Experiment [11] has as its target Mouse Albumin (mouse, UniProt P07724 25-608). As to the kind of experiment: SPR Biacore T200; TrYbe captured on anti-human F(ab')2, analyte 100-3 nM; mean KD.
Method: as §1, §2
Experiment [12] addresses T7, Human Albumin (human, UniProt P02768 25-609).
T7 construct: also called human serum albumin; HSA
The description is as above.
Method: as §1, §2

Experiment [13] has as its target T8, Cynomolgus Albumin (cynomolgus, UniProt A2V9Z4 25-608).
T8 construct: also called Cyno Albumin
The experiment is described as above.
Method: as §1, §2

The target of experiment [14] is T1, Human IL22. Kind of experiment: cell-based or functional assay.

Experimental findings from patent US20240067758A1 (UCB, published 2024) are described below.

In general, Kd refers to the equilibrium constant for the complex coming apart. Read a low Kd as tighter binding. Broadly, the koff is the first-order rate constant of dissociation. Low readings indicate slow dissociation, high ones fast dissociation. A word on the kon: it is the rate constant with which the complex forms.

B1: TrYbe molecule with 11070 gL7gH16 IL22 domain (other)
VL: DIQMTQSPSSVSASVGDRVTITCKASKTISKYLAWYQQKPGKANKLLIYSGSTLQSGVPSRFSGSGSGTDFTLTISSLQPEDFATYYCQQHNEYPLTFGQGTKLEIK
VH: EVQLQESGPGLVKPSQTLSLTCTVSGFSLTSYSVHWVRQHPGKGLEWIGRMWSDGDTSYNTAFTSRLTISRDTSKNQVSLKLSSVTAADTAVYYCARSLDFYYDTTLAFWGQGTTVTVSS
In turn, B1 showed an equilibrium dissociation constant (Kd) in [1] below 100 pM.

B2: IL13/IL22 TrYbe (other)
heavy: EVQLVESGGGLVQPGGSLRLSCAVSGFSLSSYAMIWVRQAPGKGLEWIGIIDIEGSTYYASWAKGRFTISRDNSKNTVYLQMNSLRAEDTAVYYCARDRFVGVDIFDPWGQGTLVTVSSASTKGPSVFPLAPSSKSTSGGTAALGCLVKDYFPEPVTVSWNSGALTSGVHTFPAVLQSSGLYSLSSVVTVPSSSLGTQTYICNVNHKPSNTKVDKKVEPKSCSGGGGSGGGGSEVQLLESGGGLVQPGGSLRLSCAVSGIDLSNYAINWVRQAPGKCLEWIGIIWASGTTFYATWAKGRFTISRDNSKNTVYLQMNSLRAEDTAVYYCARTVPGYSTAPYFDLWGQGTLVTVSSGGGGSGGGGSGGGGSGGGGSDIQMTQSPSSVSASVGDRVTITCQSSPSVWSNFLSWYQQKPGKAPKLLIYEASKLTSGVPSRFSGSGSGTDFTLTISSLQPEDFATYYCGGGYSSISDTTFGCGTKVEIKRT
light: AVQLTQSPSSLSASVGDRVTITCQASEDIYTNLAWYQQKPGKAPKLLIYWASTLASGVPSRFSGSGSGTDFTLTISSLQPEDFATYYCQASVYGNAADSRYTFGGGTKVEIKRTVAAPSVFIFPPSDEQLKSGTASVVCLLNNFYPREAKVQWKVDNALQSGNSQESVTEQDSKDSTYSLSSTLTLSKADYEKHKVYACEVTHQGLSSPVTKSFNRGECSGGGGSGGGGSEVQLVQSGAEVKKPGSSVKVSCKASGYSFTSYYIHWVRQAPGQCLEWMGRIGPGSGDINYNEKFKGRATFTVDKSTSTAYMELSSLRSEDTAVYYCARFHYDGADWGQGTLVTVSSGGGGSGGGGSGGGGSGGGGSDIQMTQSPSSLSASVGDRVTITCKASQNINENLDWYQQKPGKAPKLLIYYTDILQTGIPSRFSGSGSGTDYTLTISSLQPEDFATYYCYQYYSGYTFGCGTKLEIKRT
notes: also called batches PB8056 and PB7916
For B2, in experiment [2], the “IC50 (read off the curve), inhibition of eotaxin-3 secretion, primary human keratinocytes stimulated with IL-13 and IL-22 at 100 ng/ml” value was around 6000 pM. The Kd in [3] is 30 pM; in experiment [4], 26 pM; in experiment [6] it was below 100 pM; in experiment [7], below 100 pM; in experiment [8], below 250 pM; in [9], below 100 pM. For the same molecule, the Kd in [10] fell in the range of 14000 to 25000 pM; in [11] it was 5000 to 6000 pM; in experiment [12] it was 1000 to 3000 pM; in experiment [13], 1000 to 3000 pM. The off-rate (koff) in experiment [3] worked out at 3.2e-05 s⁻¹; in [4], 3.1e-05 s⁻¹. Further, the results for the association rate constant (kon) in [3] and in experiment [4] were 1.1e+06 M⁻¹ s⁻¹ and 1.2e+06 M⁻¹ s⁻¹, respectively. The binding result in [5] is reported as “no binding (tested: 10 nM to 0.3125 nM)”. Besides, the “IC50 (M) Geomean; IL22-induced IL-10 release, COLO205 cells; batch PB7916 (N = 4)” value in [14] was 3.4e-11 M. In [14], the “IC50 (M) Geomean; IL22-induced IL-10 release, COLO205 cells; batch PB8056 (N = 4)” value was found to be 3.66e-11 M.
